Data on one molecule can be found in US20190270798A1 (CHILDREN S MEDICAL CENTER, published 2019).

Experiment [1] has as its target T1, human Glycoprotein A Repetitions Predominant (GARP) (human, UniProt Q14392 20-662).
T1 construct: whole, on cells; tested in cell lysates; also called LRRC32; FLAG-tagged GARP
T1 sequence (looked up): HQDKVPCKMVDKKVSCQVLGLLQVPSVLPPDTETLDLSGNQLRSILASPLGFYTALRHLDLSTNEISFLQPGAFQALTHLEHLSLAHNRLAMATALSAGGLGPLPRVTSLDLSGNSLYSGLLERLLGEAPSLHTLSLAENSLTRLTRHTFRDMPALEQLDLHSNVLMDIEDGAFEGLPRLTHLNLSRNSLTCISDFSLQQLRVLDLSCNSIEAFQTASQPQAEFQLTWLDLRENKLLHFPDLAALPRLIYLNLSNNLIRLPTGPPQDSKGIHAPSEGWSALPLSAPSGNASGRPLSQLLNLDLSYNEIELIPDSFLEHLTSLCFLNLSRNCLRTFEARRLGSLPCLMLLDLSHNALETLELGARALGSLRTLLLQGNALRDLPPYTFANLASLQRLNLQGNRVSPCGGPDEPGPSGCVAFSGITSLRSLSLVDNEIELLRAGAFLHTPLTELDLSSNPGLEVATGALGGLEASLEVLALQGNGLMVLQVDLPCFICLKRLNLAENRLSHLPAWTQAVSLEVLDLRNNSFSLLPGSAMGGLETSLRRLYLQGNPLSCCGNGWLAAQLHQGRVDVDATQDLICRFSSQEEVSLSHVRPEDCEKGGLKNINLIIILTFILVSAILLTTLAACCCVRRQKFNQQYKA
As to the kind of experiment: immunoprecipitation from L1.2 transfectant lysates, blot. On the procedure: Cell surface expression of FLAG-LRRC33, FLAG-33-32-X1, and FLAG-33-32-X5 were measured using FACS. Numbers show the MFI (mean fluorescence intensity). (B, C) The specificity of anti-LRRC33 antibody.
Anti-LRRC33 mAb was generated by immunizing Lac33^{-/-} mice with L1.2 cells that stably express the 33-32-X1 chimera on the cell surface. Hybridoma supernatants were screened by immunofluorescence flow cytometry (FACS) and an LRRC33 positive hybridoma was identified. This anti-LRRC33 mAb only recognizes human LRRC33, not GARP, in L1.2 transfectants by immunoprecipitates (IP) (FIG. 8B, line 2, 3).
After 48 hours of transfection, cells were collected and lysed in IP lysis buffer (50 mM Tris pH7.4, 150 mM NaCl, 2 mM EDTA, 1% NP-40), which was supplemented with a protease inhibitor cocktail (Roche) and subjected to western blot analysis or were used for immunoprecipitation with the indicated antibody. Performed as described previously {Wang et al, 2012}. L1.2 cells were transfected with indicated plasmid using electroporation. […]

The next experiment addresses T2, mouse LRRC33 (mouse, UniProt Q8BMT4 20-693, limits assumed).
T2 construct: also called mouse LRRC33 complexes
T2 sequence (looked up): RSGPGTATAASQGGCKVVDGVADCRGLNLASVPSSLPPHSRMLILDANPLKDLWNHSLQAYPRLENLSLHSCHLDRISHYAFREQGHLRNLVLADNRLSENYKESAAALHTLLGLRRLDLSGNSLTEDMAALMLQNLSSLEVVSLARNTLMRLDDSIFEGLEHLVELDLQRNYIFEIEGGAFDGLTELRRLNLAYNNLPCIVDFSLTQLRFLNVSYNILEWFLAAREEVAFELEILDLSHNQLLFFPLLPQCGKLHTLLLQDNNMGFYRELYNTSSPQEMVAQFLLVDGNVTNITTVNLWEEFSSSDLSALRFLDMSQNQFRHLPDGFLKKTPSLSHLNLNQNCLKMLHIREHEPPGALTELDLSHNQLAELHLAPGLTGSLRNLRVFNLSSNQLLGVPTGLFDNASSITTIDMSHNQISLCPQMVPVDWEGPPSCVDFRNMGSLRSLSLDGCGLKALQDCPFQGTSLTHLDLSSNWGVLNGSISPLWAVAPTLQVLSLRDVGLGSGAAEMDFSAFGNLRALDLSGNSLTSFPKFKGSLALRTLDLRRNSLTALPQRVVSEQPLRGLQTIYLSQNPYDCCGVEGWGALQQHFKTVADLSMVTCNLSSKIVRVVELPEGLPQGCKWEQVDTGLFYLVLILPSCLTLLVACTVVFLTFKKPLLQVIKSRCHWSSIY
The experiment in a line: immunoprecipitation from 293T transfectant lysates, blot.

B1: anti-LRRC33 monoclonal antibody (mAb) (antibody, V domains shown)
VH: EFQLQQSGPELVKPGASVKMSCKASGYSFTDSYMDWVKQSNGKTLEWIGLINPKYGTTTYNQKFKGKATLTVDQSSSTAYMQLNSLTSEDSAVYFCASLYYDYSAWFAYWGQGTLVTVSA
VL: QAVVTQESALTTSPGETVTLTCRSSTGAVTTSNYANWVQEKPDHLFTGLIGGTNNRAPGVPARFSGSLIGDKAALIITGAQTEDEAIYFCGLWFSNRWVFGGGTKLTVV
notes: Mouse hybridoma mAb raised in Lrrc33-/- mice against L1.2 cells expressing the 33-32-X1 chimera; also called anti-LRRC33 mAb; anti-LRRC33 antibody
Consider B1, for which the binding result (in experiment [1]; in the experiment with mouse LRRC33) was “no binding” in each case.
